In US20030215792A1 one finds decrease in intracellular calcium outflow in cultivated astrocytes after 5 minutes' pre-incubation with monoclonal antibody 12G5 data, which are given here for 1 substance.

In this test the target is CXCR4 receptor on cultivated primary astrocytes of rats (rat) (UniProt O08565). The test can be described thus: cell-based or functional assay.
Sequence of UniProt O08565 (O08565 whole entry): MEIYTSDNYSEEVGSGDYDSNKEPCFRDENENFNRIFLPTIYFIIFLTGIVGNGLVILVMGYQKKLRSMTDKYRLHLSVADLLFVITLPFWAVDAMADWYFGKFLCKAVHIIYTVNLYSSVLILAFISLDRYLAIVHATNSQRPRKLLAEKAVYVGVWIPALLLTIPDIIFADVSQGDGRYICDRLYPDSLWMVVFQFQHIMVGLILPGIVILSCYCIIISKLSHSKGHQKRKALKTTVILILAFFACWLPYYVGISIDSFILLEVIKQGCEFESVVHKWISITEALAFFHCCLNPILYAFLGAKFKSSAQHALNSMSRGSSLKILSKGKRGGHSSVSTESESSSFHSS

Turning to “SDF-1α (R&D Systems, Wiesbaden) (ligand)”, the decrease in intracellular calcium outflow in cultivated astrocytes after 5 minutes' pre-incubation with monoclonal antibody 12G5 came to 50%.
